Measurements reported in paper doi:10.1101/2025.05.13.653872, “A novel non-catalytic function of PA2803-encoded PcrP contributes to polymyxin B resistance in P. aeruginosa and redefines the functional role of the PA2803 subfamily” (bioRxiv, 2025).

Target: the molecule itself
Assay: cross-linking; 50 μM purified PcrP with 0.02, 0.05, 0.1 and 0.2% glutaraldehyde for 2 min in 50 mM NaCl, 1% glycerol, 20 mM HEPES pH 7.8; stopped with Tris-HCl pH 8.0; 12% SDS-PAGE, Coomassie

B1: 6XHis-PcrP (PA2803), recombinant, purified (natural protein)
chain: MPSSDQLPRFTALLFGLSGGLVDFGARTLSLALLRSHPHSPAEHLRDASLLPFAEAQSFLLRRKPNKSERQRLEQALDEAAGEQAEAIAGAVALLESLDEQRIPYAWQDELPESVCQRLAAPLGRANALIPLAGARPWPAPDGCWQALARLGIERLDGCVLVSAQPRQLQAGLNAGLWTIGLAASGPSCGLSPADWDALGHTERDRLRADATLELYRLGVHSVIDHLGELQPCLHDLAVRRLKGEKP
notes: PcrP (PA2803), P. aeruginosa PAO1; No tag cleavage step is described; The reverse primer carries the stop codon, so the His tag of the vector should be N-terminal; also called 6XHis-PA2803; pAAK001; source: E. coli BL21(DE3), purified (Ni-NTA)
stoichiometry N: 2
